The supplement of paper PMC9170038

Assays:
MS2 coat protein [1] = test: apparent KD of MS2 coat protein, switch ON state; designed switch direction (-1 OFF switch, 1 ON switch): 1; higher = weaker reporter binding; details: FMN input: 0 or 200 uM; Eterna round: R93 (includes R88 designs)
How it was run: (§1)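 Designed RNA switches, transcribed on-chip from Illumina sequencing clusters, were titrated with SNAP-549-labelled MS2 coat protein from 0.7 or 1.5 nM to 3 µM in twofold steps. The solution was 100 mM Tris-HCl pH 7.5, 80 mM KCl, 4 mM MgCl2, with constant ligand or without it. Apparent KD is the median over each design's normalised cluster binding-curve fits.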

MS2 coat protein [2] = test: apparent KD of MS2 coat protein, switch OFF state (with FMN for OFF switches, without FMN for ON switches); designed switch direction (-1 OFF switch, 1 ON switch): 1; higher = weaker reporter binding; details: FMN input: 0 or 200 uM; Eterna round: R93 (includes R88 designs)
How it was run: as §1

Sequence: AAAUUACAUGAGGAUCACCCAUGUAACGACGUUACAGGAUAUGUGGGUGAAAAUAGCAUGACAGAAGGGUACCGUA [SameState1 Malc#38]
- apparent KD of MS2 coat protein (MS2 coat protein [1]): 0.0788 µM
- apparent KD of MS2 coat protein (MS2 coat protein [2]): 0.0284 µM

Sequence: AUAAGACAUGAGGAUCACCCAUGUAUAAGAGCAUGAGGAUAUAUGAAAAGUAAUAGGAGGAUAGAAGGCAUGGUUG [JR_SS001_Sub1219]
- apparent KD of MS2 coat protein (MS2 coat protein [1]): 0.0897 µM
- apparent KD of MS2 coat protein (MS2 coat protein [2]): 0.102 µM

Sequence: CGGAGACAUGAGGAUCACCCAUGUGAGAAGAGGCGAGGAUAUCGAAAGAAAGAAGAGAAACGAGAAGGCGCGAGGU [salish99-SS1-071]
- apparent KD of MS2 coat protein (MS2 coat protein [1]): 0.0242 µM
- apparent KD of MS2 coat protein (MS2 coat protein [2]): 0.0345 µM

Sequence: AAAUAACAUGAGGAUCACCCAUGUUGCAACGGUAGAGGAUAUGUGGGUGAAAAUAGCAUGGCAGAAGGCUAGUGUA [SameState1 Malc#28]
- apparent KD of MS2 coat protein (MS2 coat protein [1]): 0.172 µM
- apparent KD of MS2 coat protein (MS2 coat protein [2]): 0.11 µM

Sequence: AAAACACAUGAGGAUCACCCAUGUAAAAACAAGAGAGGAUAUGCUUGGAAAACAUGCUAUGCAGAAGGCUCAAGUG [SS1 - 10]
- apparent KD of MS2 coat protein (MS2 coat protein [1]): 0.0192 µM
- apparent KD of MS2 coat protein (MS2 coat protein [2]): 0.0245 µM

Sequence: GGAGCCGGCACUGAGGAUAUUCAUAUUAAAACAUGAGGAUCACCCAUGUAGGCCAGAAGGCCUUGGGAGAAGGCAGGUCGGCUCG [Arinin]
- apparent KD of MS2 coat protein (MS2 coat protein [1]): 0.0165 µM
- apparent KD of MS2 coat protein (MS2 coat protein [2]): 0.363 µM

Sequence: UAGGGAACAGGGUAGGAUAUGCAUGGUCGUACAUGAGGAUCACCCAUGUAGCCUAGAAAAUAAAUGCAGAAGGGCCAAAAGAAAA [Raritea]
- apparent KD of MS2 coat protein (MS2 coat protein [1]): 0.0398 µM
- apparent KD of MS2 coat protein (MS2 coat protein [2]): 0.0671 µM

Sequence: GAAAAACAUGAGGAUCACCCAUGUAGAAACAUGGGAGGAUAUACAAAGACGAAAGUCAAAGUAGAAGGCCUAAAAG [Mat - Same State 1 - Mod - D159]
- apparent KD of MS2 coat protein (MS2 coat protein [1]): 0.207 µM
- apparent KD of MS2 coat protein (MS2 coat protein [2]): 0.119 µM

Sequence: AGAAGACAUGAGGAUCACCCAUGUAGGAAUAUGGGAGGAUAUACAAAGACGAAAGUCAGAGUAGAAGGCCUAGGAA [salish99-SS1-090]
- apparent KD of MS2 coat protein (MS2 coat protein [1]): 0.0185 µM
- apparent KD of MS2 coat protein (MS2 coat protein [2]): 0.053 µM

Sequence: AAGAAACAUGAGGAUCACCCAUGUAAGAUAAACACAGGAUAUGCGAAAGAAACAAAAGAAGCAGAAGGGUGAAGAA [Mat - Same State 1 - Tesla mod - D146]
- apparent KD of MS2 coat protein (MS2 coat protein [1]): 0.0171 µM
- apparent KD of MS2 coat protein (MS2 coat protein [2]): 0.0294 µM

Sequence: UGGAGACAUGAGGAUCACCCAUGUGAGAAGAGGCGAGGAUAUCGAAAGAAAGAAGAGAAACGAGAAGGCGCGAGCC [salish99-SS1-048]
- apparent KD of MS2 coat protein (MS2 coat protein [1]): 0.0362 µM
- apparent KD of MS2 coat protein (MS2 coat protein [2]): 0.0499 µM

Sequence: AUGUAUAGCCUCGAGGAUAUCCUGUCAUGCACAUGAGGAUCACCCAUGUAAGAGAGAGUUUAAUGGGAGAAGGCGAGUUCUCGGU [JR_SS002_Sub1706]
- apparent KD of MS2 coat protein (MS2 coat protein [1]): 0.0334 µM
- apparent KD of MS2 coat protein (MS2 coat protein [2]): 0.0666 µM

Sequence: AAAAGACAUGAGGAUCACCCAUGUGAAAACGUACAAGGAUAUGUGUGGAAACCGUACUAUACAGAAGGUGUCUGUC [SS1 - 87]
- apparent KD of MS2 coat protein (MS2 coat protein [1]): 0.063 µM
- apparent KD of MS2 coat protein (MS2 coat protein [2]): 0.0302 µM

Sequence: UGGAGACAUGAGGAUCACCCAUGUGAGAAGAGGCGAGGAUAUCGAAAAAAAAAAAAAAAACGAGAAGGCGCGAGAU [salish99-SS1-008]
- apparent KD of MS2 coat protein (MS2 coat protein [1]): 0.0259 µM
- apparent KD of MS2 coat protein (MS2 coat protein [2]): 0.0221 µM

Sequence: AAUAUACAUGAGGAUCACCCAUGUUAGGUGGGACUAGGAUAUCAAAAUAAAUAAUGAACAUGAGAAGGAGUAUCAA [JR_SS001_Sub402]
- apparent KD of MS2 coat protein (MS2 coat protein [1]): 0.13 µM
- apparent KD of MS2 coat protein (MS2 coat protein [2]): 0.19 µM

Sequence: AAAUAAAGGACUGAGGAUAUACCACAUGAAACAUGAGGAUCACCCAUGUAGAAAUACAAGCGGUGGUAGAAGGCAGUCCACAAAC [Same State 2.5i ( so lets mod hyphema)]
- apparent KD of MS2 coat protein (MS2 coat protein [1]): 0.0212 µM
- apparent KD of MS2 coat protein (MS2 coat protein [2]): 0.0204 µM
